Experiments:
VISTA(1-195)-COMP-His [1] = biological target: VISTA(1-195)-COMP-His (human); assay: SPR (Biacore T200); VISTA-COMP against monomeric VISTA, VSIG3-Fc analyte
Method: (§1) VISTA or VISTA-COMP (each prepared as described in Example 4) was covalently immobilized to the surface of a CM5 chip (GE Healthcare, US) using an anti-poly His antibody. Dilutions of VSIG3 Fc-fusion were then flowed over the surface at concentration ranging between 0.2 nM and 20 μM and the double reference subtracted data fit to a 1:1 Langmuir binding model with Biacore T200 Evaluation Software version 3.1
This increase is largely due to an […].

[2] = biological target: T1, Recombinant human VISTA Fc Chimera (human); assay: functional ELISA; rhVISTA coated 2 µg/mL, biotinylated rhVSIG3, streptavidin-HRP
T1 construct: also called rhVISTA; VISTA/IgG Fc fusion protein
Method: Recombinant human VSIG3 Fc Chimera (“rhVSIG3”—encoded by SEQ ID NO:3; see Table 1) specifically binds to a recombinant human VISTA Fc Chimera (“rhVISTA”—encoded by SEQ ID NO:6; see Table 1) on a functional ELISA binding assay. rhVISTA was coated on the wells of a ELISA microtiter plate at 2 μg/ml in a 100 μL volume. Following blocking of the wells with 1% BSA, varying amounts of rhVSIG3 labeled with biotin was added. Biotin label associated with the plate due to the rhVSIG3-rhVISTA interaction was detected with streptavidin-HRP. […] The non-specific binding is subtracted and in all cases was less than 5% of the total signal.

VISTA(1-195)-COMP-His [3] = biological target: VISTA(1-195)-COMP-His (human); assay: SPR (Biacore T200); VISTA-COMP captured by anti-poly His antibody on CM5 chip, VSIG3-Fc analyte, 1:1 Langmuir fit
Method: as §1

monomeric VISTA [4] = biological target: monomeric VISTA (human); assay: SPR (Biacore T200); monomeric VISTA captured by anti-poly His antibody on CM5 chip, VSIG3-Fc analyte, 1:1 Langmuir fit
monomeric VISTA (human), sequence (Q9H7M9 33-194): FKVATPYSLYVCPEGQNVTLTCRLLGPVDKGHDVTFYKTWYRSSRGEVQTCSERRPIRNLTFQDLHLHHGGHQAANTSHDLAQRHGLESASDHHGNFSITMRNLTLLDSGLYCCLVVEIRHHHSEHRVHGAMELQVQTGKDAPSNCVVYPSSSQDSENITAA
Method: as §1

VISTA(1-195)-COMP-His [5] = biological target: VISTA(1-195)-COMP-His (human); assay: SPR (Biacore): VISTA-COMP captured by anti-poly-His antibody on a CM5 chip, VSIG3-Fc analyte 0.2 to 500 nM, 1:1 fit
Method: (§2) FIG. 9A-FIG. 9D show schematics and quantification of the kinetics and affinity of the VISTA-VSIG3 interaction by surface plasmon resonance (Biacore) using monomeric VISTA and multimeric VISTA-COMP. FIG. 9A and FIG. 9C show schematics of the Biacore experiment, where VISTA (FIG. 9A) or VISTA-COMP (FIG. 9C) is captured on the surface of a CM5 chip (GE Healthcare) using an anti-poly His antibody. The analyte, VSIG3-Fc, is flowed over the captured VISTA at concentration ranging between 0.2 nM and 20 μM. FIG. 9B and FIG. 9D show resulting sensorgrams and kinetic fits using a 1:1 model for the monomeric VISTA-VSIG3-Fc interaction (FIG. 9B) and the multimeric VISTA-COMP-VSIG3-Fc interaction (FIG. 9D). For captured monomeric VISTA, the VSIG3-Fc analyte was tested in the range of 0.247 μM to 20 μM. For captured multimeric VISTA-COMP, the VSIG3-Fc analyte was tested in the range of 0.2 nM to 500 nM.
as §1

monomeric VISTA [6] = biological target: monomeric VISTA (human); assay: SPR (Biacore): monomeric VISTA captured by anti-poly-His antibody on a CM5 chip, VSIG3-Fc analyte 0.247 to 20 µM, 1:1 fit
Method: as §2, §1

[7] = biological target: T1, Recombinant human VISTA Fc Chimera; assay: AVEXIS screen

VISTA(1-195)-COMP-His (human), sequence (chain, as listed by the source): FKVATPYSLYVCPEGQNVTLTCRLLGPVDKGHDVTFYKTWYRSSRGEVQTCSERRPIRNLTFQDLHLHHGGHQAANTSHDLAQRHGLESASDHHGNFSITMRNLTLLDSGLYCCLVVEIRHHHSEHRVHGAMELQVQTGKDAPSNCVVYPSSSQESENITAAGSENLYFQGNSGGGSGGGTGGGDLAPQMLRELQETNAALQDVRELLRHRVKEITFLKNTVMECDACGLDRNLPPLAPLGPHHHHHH

B1: Recombinant human VSIG3 Fc Chimera (Fc fusion)
chain: LEVSESPGSIQVARGQTAVLPCTFTTSAALINLNVIWMVTPLSNANQPEQVILYQGGQMFDGAPRFHGRVGFTGTMPATNVSIFINNTQLSDTGTYQCLVNNLPDIGGRNIGVTGLTVLVPPSAPHCQIQGSQDIGSDVILLCSSEEGIPRPTYLWEKLDNTLKLPPTATQDQVQGTVTIRNISALSSGLYQCVASNAIGTSTCLLDLQVISPQPRNIGLIAGIEGRMDPKSCDKTHTCPPCPAPEAEGAPSVFLFPPKPKDTLMISRTPEVTCVVVDVSHEDPEVKFNWYVDGVEVHNAKTKPREEQYNSTYRVVSVLTVLHQDWLNGKEYKCKVSNKALPAPIEKTISKAKGQPREPQVYTLPPSRDELTKNQVSLTCLVKGFYPSDIAVEWESNGQPENNYKATPPVLDSDGSFFLYSKLTVDKSRWQQGNVFSCSVMHEALHNHYTQKSLSLSPGK
notes: also called rhVSIG3; rhVSIG-3
VISTA(1-195)-COMP-His [1]
  fold higher affinity than with monomeric VISTA: ~150 fold
[2]
  EC50: ~0.25 µg/mL
VISTA(1-195)-COMP-His [3]
  Kd: ~0.017 µM
Monomeric VISTA [4]
  Kd: ~2.5 µM
VISTA(1-195)-COMP-His [5]
  Kd: 0.017 µM
Monomeric VISTA [6]
  Kd: 2.52 µM

B2: VSIG3(1-245)-COMP-AlkPhos-Flag/His (other)
chain: LEVSESPGSIQVARGQPAVLPCTFTTSAALINLNVIWMVTPLSNANQPEQVILYQGGQMFDGAPRFHGRVGFTGTMPATNVSIFINNTQLSDTGTYQCLVNNLPDIGGRNIGVTGLTVLVPPSAPHCQIQGSQDIGSDVILLCSSEEGIPRPTYLWEKLDNTLKLPPTATQDQVQGTVTIRNISALSSGLYQCVASNAIGTSTCLLDLQVISPQPRNIGLIAGSENLYFQGNSGGGSGGGTGGGDLAPQMLRELQETNAALQDVRELLRHRVKEITFLKNTVMECDACGLDRNLPPLAPLGPIIPVEEENPDFWNREAAEALGAAKKLQPAQTAAKNLIIFLGDGMGVSTVTAARILKGQKKDKLGPEIPLAMDRFPYVALSKTYNVDKHVPDSGATATAYLCGVKGNFQTIGLSAAARFNQCNTTRGNEVISVMNRAKKAGKSVGVVTTTRVQHASPAGTYAHTVNRNWYSDADVPASARQEGCQDIATQLISNMDIDVILGGGRKYMFRMGTPDPEYPDDYSQGGTRLDGKNLVQEWLAKRQGARYVWNRTELMQASLDPSVTHLMGLFEPGDMKYEIHRDSTLDPSLMEMTEAALRLLSRNPRGFFLFVEGGRIDHGHHESRAYRALTETIMFDDAIERAGQLTSEEDTLSLVTADHSHVFSFGGYPLRGSSIFGLAPGKARDRKAYTVLLYGNGPGYVLKDGARPDVTESESGSPEYRQQSAVPLDEETHAGEDVAVFARGPQAHLVHGVQEQTFIAHVMAFAACLEPYTACDLAPPAGTTDDYKDDDDKHHHHHH
notes: also called penta-VSIG3
[7]
  binding result: no binding
